Assays:
[1] = molecular target: solubilized HLA-DR3 (a mix of DRB1*0301 and DRB3*0101) (human); test: competition binding
[2] = molecular target: solubilized HLA-DR3 (a mix of DRB1*0301 and DRB3*0101) (human); test: DELFIA competitive binding vs biotinylated MBP 84-102, solubilized HLA-DR3, pH 5.5
[3] = molecular target: solubilized HLA-DR2 (a mix of DRB1*1501 and DRB5*0101) (human); test: competition binding
[4] = molecular target: solubilized HLA-DR3 (a mix of DRB1*0301 and DRB3*0101) (human); test: competition binding; design: unit not given beside the values
[5] = molecular target: solubilized HLA-DR2 (a mix of DRB1*1501 and DRB5*0101) (human); test: DELFIA competitive binding vs biotinylated MBP 84-102, solubilized HLA-DR2, pH 5.5

Row | IC50 [1] [µM] | IC50 [3] [µM] | Substance | IC50 [2] [µM] | IC50 [4] | IC50 [5] [µM]
1 | 48.9 | – | AChRα peptide 419-437 (from UniProt P02708 439-457) | – | – | –
2 | – | 4.19 | AChRα peptide 310-327 (from UniProt P02708 330-347) | – | – | –
3 | 6.04 | 36.8 | AChRα peptide 195-212 (from UniProt P02708 215-232) | – | 6036 ? | –
4 | 2 | – | AChRα peptide 145-163 (from UniProt P02708 165-183) | – | 2002 ? | –
5 | 73 | – | AChRα peptide 113-126 (from UniProt P02708 133-146) | – | – | –

More lines, now with the values behind:

Row | Substance | IC50 [1] [µM] | IC50 [3] [µM] | IC50 [2] [µM] | IC50 [4] | IC50 [5] [µM]
6 | AChRα peptide 204-217 (from UniProt P02708 224-237) | – | – | 71.3 | – | –
7 | AChRα peptide 7-22 (from UniProt P02708 27-42) | – | – | 6.15 | 6153 ? | –
8 | AChRα peptide 36-49 (from UniProt P02708 56-69) | – | – | 7.3 | 7299 ? | 11

From US20050048066A1, “Identification of potential immunodominant acetylcholine receptor alpha subunit” (priority 2000, published 2005)
